Measured values from the nanobody polyreactivity screen of Harvey et al. (2022).

Assay: yeast display, Sf9 membrane polyspecificity reagent, FACS + sequencing; frameworks hold sequencing errors
Procedure, shortened: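 Nanobodies came from a synthetic yeast display library in Saccharomyces cerevisiae BJ5465, induced with galactose for 36–48 hours and stained for 1 hour at 4 °C with 10% biotinylated, detergent-solubilized Sf9 membrane reagent. Cells were enriched on streptavidin microbeads and then FACS-sorted, with low and high (top ~1%) gates set on anti-HA fluorescence for expression and streptavidin fluorescence for reagent binding. Each polyreactivity label reflects the gate a clone came from. Genes were amplified by colony PCR, sequenced by MiSeq 2 × 250 and filtered by CDR length.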

| Sequence | polyreactivity (PSR sort gate) |
| --- | --- |
| QVQLVESGGGLVQAGGSLRLSCAASGRIFRLYAMGWYRQAPGKERELVAAISKSGGSTYYADSVKGRFTISRDTATNTVYLQMNSLKPEDTAVYYCAADYRTHGGYEGTFDYWGQGTQVTVSS | low polyreactivity |
| QVQLVESGGGLVQAGGSLRLSCDASGRIFAYYARGWYRQAPGKERELVAAITTNGGGTYYADSVKGRFTISRDNAKNTVYLQMNSLKPEDTGVYYCNAVKQRSSIFDYWGQGTQVTVSS | low polyreactivity |
| QVQLVESGGGLVQAGGSLRLSCAASGRTFRYNTMGWYRQAPGKERELVASISSGDRTYYADSVKGRFTISRDNAKNTVYLQMNSLKPEDTAVYYCAKDVGYWYYYWGQGTQVTVSS | high polyreactivity |
| QVQLVESARGLVQAGGSLRLSCAASGFTFYKYAMGWYRQAPGKETELVDAISSGGRTNYADSVKGRFTISRDNAMNTVYLHMNSLNPEDTAVYFCAADRSYRSGYNYWGQGTQVTVSS | high polyreactivity |
| QVQLVESGGGLVQAGGSLRLSCAASGRILYPYAMGWYRQAPGTERELVAAITFRGGNTYYADSVKGRFTISRDNAKNTVYLQMNSLKPEDTAVYYCAKRGGYWHKFDYWGQGTQVTVSS | high polyreactivity |
| QVQLVESGGGLVQAGGSLRLSCAASGSIFYYNAMGWYRQAPGKEREFVAAIRTRGDSTYYADSVKGRFTISRDNAKNTVYLQMNSLKPEDTAVYYCAARHYGGDGNKYYYWGHGTQVTVSS | high polyreactivity |
| QVQHVESGGGLVQAGGSLRLSCAASGNIFVAYAMGGYRQAPGKERELVAAITSGGRTYADSVKGRFTISRDNAKNTVYLQMNSLKPEDTAVYYCNADPYYVYLGYYDRYYSGYGYWGQGTQVTVSS | low polyreactivity |
| QVQLVESGGGLVQAGGSLRLSCAASGSTFNLYAMGWYRQAPGKERELVAAISDGDSSTYYADSVKGRFTISRDNAKNTVYLQMNSLKPEDTAVYYCNARDDVYLITPYFLVYVNLDYWGQGTQVTVSS | low polyreactivity |
| QVQLVESGGGLVQAGGSLRLSCAASGRTFRIYAMGWYRQAPGKERELVAAISRSSTSTYYADSVKGRFTISRDNAKNTVYLQMNSLKPEDTAVYYCAAVVTVQYSQPYDHWGQGTQVTVSS | high polyreactivity |
| QVQLVESGGGLVQAGGSLRLSCAASGRTFTYYAMGWYRQAPGKERELVAAISWSGDDTYYADSVKGRFTISRDNAKNTVYLQMHSLKPEDTAVYYCAAEGGGVYSDYRENTGEDYWGQGTQVTVSS | low polyreactivity |
| QVQLVESGGGLVQAGGSLRLSCAASGFIFETNAMGWYRQAPGNERELVAAISSRGGSTYYADSVKGRFTISRDNAKNTVYLQMNSLKPEDTAVYYCAAKLVVSYGQEYDYWGQGTQVTVSS | low polyreactivity |
| QVQLVESGGGLVQAGGSLRLSCAASGRTFGYYGMGWYRQAPGKERELVAAITGSGGSTYYADSVKGRFTISRDNAKNTVYLQMNSLKPEDTAVYYCAATYLSRWTLYDYWGQGTQVTVSS | high polyreactivity |
| QVQLVESGGGLVQAGGSLRLSCAASGSIFGDYAMGWYRQAPGKEREFVAGITRRGGRTYYADSVKGRFTISRDNAKNTVYLQMNSLKPEDTAVYYCNAVYSSSLRSKYDYWGQGTQVTVSS | high polyreactivity |
| QVQLVESGVGLVQAGGSLRLSCAASGRIFDGYDMGWYRQAPGKERELVAAITSVGSTNYADSVKGRFTISRDNAKNTVYLQMNSLKPEDTAVYYCAAVLYVFYDEYGYWEYFSQYDYWGQGTQVTVSS | low polyreactivity |
| QVQLVESGGGLVQAGGSLRLSCAASGITFSLYVMGWYRQAPGKERELVAAISTSGGSTYYADSVKGRFTISRDNAKNTVYLQMTSLKPEDTAVYYCAAVYVLSWYVQTYDYWGQGTQVTVSS | low polyreactivity |
| QVQLVESGGGLVQAGGSLRLSCAASGSTFDWYVMGWDRQAPGKERELVADITWSGDSTYYADSVKGRFTISRDNAKNTVYLQMNSLKPEDTAVYYCAADAYTLFYFYVYEYNYWGQGTQVTVSS | high polyreactivity |
| QVQLVESGGGLVQAGGSLRLSCAASGSTFKVYAMGWYRQAPGKERELVAAISRSGGRTYYADSVKGRFTISRDNAKNTVYLQMNSLKPEDTAVYYCNRDYTFSQGHYSGSYGYWGQGTQVTVSS | high polyreactivity |
| QVQLVESGGGLVQAGGSLRLSCAASGSIFGVYDMGWYRQAPGKERELVAVINSNGGSTYYADSVKGRFTISRDNAKNTVYLQMNSLKPEDTAVYYCAAERATVKFGYWGQGTQVTVSS | low polyreactivity |
| QVQLVESGGGLVQAGGSLRLSCAASGSTFWLNAMGWYRQAPGKERELVADISRSGGSTYYADSVKGRFTISRDNAKNTVYLQMNSLKPEDTAVYYCAADSWPDQFTVYPGGDYWGQGTQVTVSS | low polyreactivity |
| QVQLVESGGGLVQAGGSLRLSCAASGSTFHYYAMGWYRQAPGKERELVAAISYSGGRTYYADSVKGRFTISRDNAKNTVYLQMNSLKPEDTAVYYCAARRSRTGRDESWGQGTQVTVSS | high polyreactivity |
| QVQLVESGGGLVQAGGSLRLSCAASGYIFVRNAMGWYRQAPGKERELVAAISGSGGSTYYADSVKGRFTISRDNAKNTVYLQMNSLKPEDTAVYYCAADYATVTWRGIAYDYWGQGTQVTVSS | low polyreactivity |
| QVQLVESGGGLVQAGGSLRLSCAASGIIFLKYAMGWYRQAPGKERELVAAISRSGGGTYYADSVKGRFTISRDNAKNTVYLQMNSLKLEDTAVYYCAARGVDRQGYRFYYWGQGTQVTVSS | high polyreactivity |
